Read-outs that look alike come from different tables or passages of the source.
B1: IA^d/OVA complex on OVA peptide-pulsed A20 antigen presenting cells (peptide-MHC, mouse)
MHC II alpha: EDDIEADHVGFYGTTVYQSPGDIGQYTHEFDGDELFYVDLDKKKTVWRLPEFGQLILFEPQGGLQNIAAEKHNLGILTKRSNFTPATNEAPQATVFPKSPVLLGQPNTLICFVDNIFPPVINITWLRNSKSVTDGVYETSFLVNRDHSFHKLSYLTFIPSDDDIYDCKVEHWGLEEPVLKHWEPEIPAPMSELTETVVCALGLSVGLVGIVVGTIFIIQGLRSGGTSRHPGPL
MHC II beta: GNSERHFVVQFKGECYYTNGTQRIRLVTRYIYNREEYVRYDSDVGEYRAVTELGRPDAEYWNSQPEILERTRAEVDTACRHNYEGPETSTSLRRLEQPNVAISLSRTEALNHHNTLVCSVTDFYPAKIKVRWFRNGQEETVGVSSTQLIRNGDWTFQVLVMLEMTPHQGEVYTCHVEHPSLKSPITVEWRAQSESARSKMLSGIGGCVLGVIFLGLGLFIRHRSQKGPRGPPPAGLLQ
peptide: ISQAVHAAHAEINEAGR

Tests used:
Assay in all cases: cell-based or functional assay
[1] = molecular target: DO11.10 TCR (endogenous T cell receptor of the DO11.10 T cell hybridoma)
[2] = molecular target: DO11.10 scTCR/murine CD3ζ fusion molecule (membrane-bound, on transfected cells) (mouse) (UniProt P24161)
Sequence of UniProt P24161 (P24161 whole entry, the tested form may be a part): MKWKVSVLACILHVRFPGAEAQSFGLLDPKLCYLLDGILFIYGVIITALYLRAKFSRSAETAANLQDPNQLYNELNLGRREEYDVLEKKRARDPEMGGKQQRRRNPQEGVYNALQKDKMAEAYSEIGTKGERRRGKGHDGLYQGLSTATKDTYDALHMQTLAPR

[3] = molecular target: DO11.10 TCR (endogenous T cell receptor of the DO11.10 T cell hybridoma); remark: listed apart in the source
[4] = molecular target: 2B4 TCR (endogenous T cell receptor of the 2B4 T cell hybridoma) (mouse)
[5] = molecular target: DO11.10 TCR (endogenous T cell receptor of the DO11.10 T cell hybridoma); remark: listed apart in the source
[6] = molecular target: DO11.10 scTCR/murine CD3ζ fusion molecule (membrane-bound, on transfected cells) (mouse) (UniProt P24161); remark: listed apart in the source

Row | Molecule | IL-2 ELISA value; DO11.10 T cells; 12.5 ng complex/well [1] [A405] | IL-2 ELISA value; DO11.10 T cells; 25 ng complex/well [1] [A405] | IL-2 ELISA value; DO11.10 T cells; 50 ng complex/well [1] [A405] | IL-2 ELISA value; DO11.10 T cells; 100 ng complex/well [1] [A405] | IL-2 ELISA value; DO11.10 scTCR 2B4 transfectants; 7 ng complex/well [2] [A405] | IL-2 ELISA value; DO11.10 scTCR 2B4 transfectants; 15 ng complex/well [2] [A405] | IL-2 ELISA value; DO11.10 scTCR 2B4 transfectants; 31 ng complex/well [2] [A405] | IL-2 ELISA value; DO11.10 scTCR 2B4 transfectants; 62 ng complex/well [2] [A405] | IL-2 ELISA value; DO11.10 scTCR 2B4 transfectants; 125 ng complex/well [2] [A405] | IL-2 ELISA value; DO11.10 scTCR 2B4 transfectants; 250 ng complex/well [2] [A405] | IL-2 ELISA value; DO11.10 T cells; 7 ng complex/well [3] [A405] | IL-2 ELISA value; DO11.10 T cells; 15 ng complex/well [3] [A405] | IL-2 ELISA value; DO11.10 T cells; 31 ng complex/well [3] [A405] | IL-2 ELISA value; DO11.10 T cells; 62 ng complex/well [3] [A405] | IL-2 ELISA value; DO11.10 T cells; 125 ng complex/well [3] [A405] | IL-2 ELISA value; DO11.10 T cells; 250 ng complex/well [3] [A405] | further results
1 | scIA^d/OVA-IgG multimer (scIA^d/OVA-Cκ fusion with scIA^d/OVA-IgG2b heavy chain fusion) (peptide-MHC) | 0.184 | 0.758 | 2.11 | 2.9 |  |  |  |  |  |  |  |  |  |  |  |  | 
2 | scIA^d/OVA-IgM fusion (scIA^d/OVA fused to CH2-CH3-CH4 of human IgM heavy chain), multi-valent (from UniProt P01871 106-453) (peptide-MHC) |  |  |  | 1.7 | 0.264 | 0.273 | 1.32 | 1.82 | 2.33 | 2.27 | 0.838 | 1.18 | 1.42 | 1.33 | 1.61 | 1.48 | IL-2 ELISA value; DO11.10 T cells; 0.3 ng complex/well [1]: 0.192 A405; IL-2 ELISA value; DO11.10 T cells; 1 ng complex/well [1]: 0.195 A405; IL-2 ELISA value; DO11.10 T cells; 4 ng complex/well [1]: 0.23 A405; IL-2 ELISA value; DO11.10 T cells; 11 ng complex/well [1]: 0.601 A405; IL-2 ELISA value; DO11.10 T cells; 33 ng complex/well [1]: 1.64 A405; IL-2 ELISA value; DO11.10 T cells; 300 ng complex/well [1]: 0.853 A405; IL-2 ELISA value; BWDZ:CD4+ transfectants; 40 ng complex/well [2]: 0.305 A405; IL-2 ELISA value; BWDZ:CD4+ transfectants; 200 ng complex/well [2]: 0.34 A405; IL-2 ELISA value; BWDZ:CD4+ transfectants; 1000 ng complex/well [2]: 1.28 A405; IL-2 ELISA value; DO11.10 scTCR 2B4 transfectants; 1 ng complex/well [2]: 0.214 A405; IL-2 ELISA value; DO11.10 scTCR 2B4 transfectants; 3 ng complex/well [2]: 0.234 A405; IL-2 ELISA value; DO11.10 T cells; 1 ng complex/well [3]: 0.268 A405; IL-2 ELISA value; DO11.10 T cells; 3 ng complex/well [3]: 0.529 A405
3 | single-chain IA^d linked to HSV-1 glycoprotein D peptide GD 246-261 (scIA^d/GD), monovalent (peptide-MHC) |  |  |  | 0.152 | 0.163 | 0.152 | 0.213 | 0.164 | 0.179 | 0.227 | 0.163 | 0.152 | 0.213 | 0.164 | 0.179 | 0.18 | 
4 | single-chain IA^d linked to OVA 323-339 (scIA^d/OVA), monovalent (peptide-MHC) | 0.176 | 0.209 | 1.19 | 3.06 | 0.236 | 0.397 | 0.646 | 1.03 | 1.06 | 1.06 | 0.236 | 0.397 | 0.646 | 1.03 | 1.06 | 0.665 | mean IL-2 absorbance reading of eight DMSO control wells (assay plate 5-2); DO11.10 T cells on 50 ng/well scIA^d/OVA [1]: 2.2 A450
5 | single-chain IE^k linked to PCC 88-104 (scIE^k/PCC) (peptide-MHC) |  |  |  |  |  |  |  |  |  |  |  |  |  |  |  |  | IL-2 ELISA absorbance; 2B4 T cells; 12.5 ng/well immobilized scIE^k/PCC [4]: 0.054 A450; IL-2 ELISA absorbance; 2B4 T cells; 25 ng/well immobilized scIE^k/PCC [4]: 0.081 A450; IL-2 ELISA absorbance; 2B4 T cells; 50 ng/well immobilized scIE^k/PCC [4]: 0.234 A450; IL-2 ELISA absorbance; 2B4 T cells; 100 ng/well immobilized scIE^k/PCC [4]: 0.413 A450; IL-2 ELISA absorbance; 2B4 T cells; 200 ng/well immobilized scIE^k/PCC [4]: 0.485 A450; IL-2 ELISA absorbance; 2B4 T cells; 400 ng/well immobilized scIE^k/PCC [4]: 0.216 A450
6 | B1 |  |  |  |  |  |  |  |  |  |  |  |  |  |  |  |  | IL-2 ELISA value; DO11.10 T cells with OVA peptide-loaded A20 cells; 0 µM compound 12G9 [5]: 1.91 A405; IL-2 ELISA value; DO11.10 T cells with OVA peptide-loaded A20 cells; 0 µM compound 211-C3 [5]: 2.02 A405; IL-2 ELISA value; DO11.10 T cells with OVA peptide-loaded A20 cells; 0 µM compound 211-C9 [5]: 2.02 A405; IL-2 ELISA value; DO11.10 T cells with OVA peptide-loaded A20 cells; 0 µM compound 211B9 [5]: 1.92 A405; IL-2 production of BW/DZ cells with full-length CD4 (BWDZ:CD4+) relative to DO11.10 cells; OVA peptide-mixed A20 APCs [6]: 75 to 80%; IL-2 production of BW/DZ cells with truncated CD4 lacking the cytoplasmic domain (BWDZ:deltaCM) relative to DO11.10 cells; OVA peptide-mixed A20 APCs [6]: 10%
